Assay results: patent US20210388087A1 (Chugai, published 2021)
Residue numbers refer to the chain shown, from its start. Names and notes keep the numbering of the source.

B1: H183/L072 VH H35G (antibody, name in Kabat numbering, V domains shown)
VH: QVQLVESGGGLVQPGRSLRLSCAASGFTFSNAWMGWVRQAPGKGLEWVAQIKDKGNAYAAYYAPSVKGRFTISRDDSKNSIYLQMNSLKTEDTAVYYCHYVHYASASTVLPAFGVDAWGQGTTVTVSS
VL: DIVMTQSPLSLPVTPGEPASISCQASQELVHMNRNTYLHWYQQKPGQAPRLLIYKVSNRFPGVPDRFSGSGSGTDFTLKISRVEAEDVGVYYCAQGTSVPFTFGQGTKLEIK
B2: H183/L072 VH H35Q (antibody, name in Kabat numbering, V domains shown)
VH: B1 VH with G35Q
VL: B1 VL
B3: H183/L072 VH H35V (antibody, name in Kabat numbering, V domains shown)
VH: B1 VH with G35V
VL: B1 VL
B4: H183/L072 VH I51K (antibody, name in Kabat numbering, V domains shown)
VH: B1 VH with G35H, I51K
VL: B1 VL
B5: H183/L072 VH I51L (antibody, name in Kabat numbering, V domains shown)
VH: B1 VH with G35H, I51L
VL: B1 VL
B6: H183/L072 VH I51A (antibody, name in Kabat numbering, V domains shown)
VH: B1 VH with G35H, I51A
VL: B1 VL
B7: H183/L072 VH H96P (antibody, name in Kabat numbering, V domains shown)
VH: B1 VH with G35H, H102P
VL: B1 VL
B8: H183/L072 VH I51V (antibody, name in Kabat numbering, V domains shown)
VH: B1 VH with G35H, I51V
VL: B1 VL
B9: H183/L072 VH H35P (antibody, name in Kabat numbering, V domains shown)
VH: B1 VH with G35P
VL: B1 VL
B10: H183/L072 VH I51Y (antibody, name in Kabat numbering, V domains shown)
VH: B1 VH with G35H, I51Y
VL: B1 VL
B11: H183/L072 VH H35T (antibody, name in Kabat numbering, V domains shown)
VH: B1 VH with G35T
VL: B1 VL
B12: H183/L072 VH H35N (antibody, name in Kabat numbering, V domains shown)
VH: B1 VH with G35N
VL: B1 VL
B13: H183/L072 VH I51P (antibody, name in Kabat numbering, V domains shown)
VH: B1 VH with G35H, I51P
VL: B1 VL
B14: H183/L072 VH I51R (antibody, name in Kabat numbering, V domains shown)
VH: B1 VH with G35H, I51R
VL: B1 VL
B15: H183/L072 VH H35I (antibody, name in Kabat numbering, V domains shown)
VH: B1 VH with G35I
VL: B1 VL
B16: H183/L072 VH I51D (antibody, name in Kabat numbering, V domains shown)
VH: B1 VH with G35H, I51D
VL: B1 VL
B17: H183/L072 VH H93A (antibody, name in Kabat numbering, V domains shown)
VH: B1 VH with G35H, H99A
VL: B1 VL
B18: H183/L072 VH H96L (antibody, name in Kabat numbering, V domains shown)
VH: B1 VH with G35H, H102L
VL: B1 VL
B19: H183/L072 VH I51H (antibody, name in Kabat numbering, V domains shown)
VH: B1 VH with G35H, I51H
VL: B1 VL
B20: H183/L072 VH H35Y (antibody, name in Kabat numbering, V domains shown)
VH: B1 VH with G35Y
VL: B1 VL
B21: H183/L072 VH H96A (antibody, name in Kabat numbering, V domains shown)
VH: B1 VH with G35H, H102A
VL: B1 VL
B22: H183/L072 VH I51E (antibody, name in Kabat numbering, V domains shown)
VH: B1 VH with G35H, I51E
VL: B1 VL
B23: H183/L072 VH H93M (antibody, name in Kabat numbering, V domains shown)
VH: B1 VH with G35H, H99M
VL: B1 VL
B24: H183/L072 VH I51T (antibody, name in Kabat numbering, V domains shown)
VH: B1 VH with G35H, I51T
VL: B1 VL
B25: H183/L072 VH H35K (antibody, name in Kabat numbering, V domains shown)
VH: B1 VH with G35K
VL: B1 VL
B26: H183/L072 VH H35M (antibody, name in Kabat numbering, V domains shown)
VH: B1 VH with G35M
VL: B1 VL
B27: H183/L072 VH H35R (antibody, name in Kabat numbering, V domains shown)
VH: B1 VH with G35R
VL: B1 VL
B28: H183/L072 VH H35S (antibody, name in Kabat numbering, V domains shown)
VH: B1 VH with G35S
VL: B1 VL
B29: H183/L072 VH H96M (antibody, name in Kabat numbering, V domains shown)
VH: B1 VH with G35H, H102M
VL: B1 VL
B30: H183/L072 VH H93L (antibody, name in Kabat numbering, V domains shown)
VH: B1 VH with G35H, H99L
VL: B1 VL
B31: H183/L072 VH H96I (antibody, name in Kabat numbering, V domains shown)
VH: B1 VH with G35H, H102I
VL: B1 VL
B32: H183/L072 VH I51G (antibody, name in Kabat numbering, V domains shown)
VH: B1 VH with G35H, I51G
VL: B1 VL
B33: H183/L072 VH I51W (antibody, name in Kabat numbering, V domains shown)
VH: B1 VH with G35H, I51W
VL: B1 VL
B34: H183/L072 VH H35L (antibody, name in Kabat numbering, V domains shown)
VH: B1 VH with G35L
VL: B1 VL
B35: H183/L072 VH H93I (antibody, name in Kabat numbering, V domains shown)
VH: B1 VH with G35H, H99I
VL: B1 VL
B36: H183/L072 VH H35W (antibody, name in Kabat numbering, V domains shown)
VH: B1 VH with G35W
VL: B1 VL
B37: H183/L072 VH I51M (antibody, name in Kabat numbering, V domains shown)
VH: B1 VH with G35H, I51M
VL: B1 VL
B38: H183/L072 VH H93P (antibody, name in Kabat numbering, V domains shown)
VH: B1 VH with G35H, H99P
VL: B1 VL
B39: H183/L072 VH I51S (antibody, name in Kabat numbering, V domains shown)
VH: B1 VH with G35H, I51S
VL: B1 VL
B40: H183/L072 VH I51F (antibody, name in Kabat numbering, V domains shown)
VH: B1 VH with G35H, I51F
VL: B1 VL
B41: H183/L072 VH I51Q (antibody, name in Kabat numbering, V domains shown)
VH: B1 VH with G35H, I51Q
VL: B1 VL
B42: H183/L072 VH I51N (antibody, name in Kabat numbering, V domains shown)
VH: B1 VH with G35H, I51N
VL: B1 VL

Biological target: T1, Human CD3eg linker (human)
T1 construct: Single chain: epsilon and gamma subunits of human CD3 joined by a 29-mer linker, Flag-tag at the C-terminus; also called recombinant human CD3
T1 chain: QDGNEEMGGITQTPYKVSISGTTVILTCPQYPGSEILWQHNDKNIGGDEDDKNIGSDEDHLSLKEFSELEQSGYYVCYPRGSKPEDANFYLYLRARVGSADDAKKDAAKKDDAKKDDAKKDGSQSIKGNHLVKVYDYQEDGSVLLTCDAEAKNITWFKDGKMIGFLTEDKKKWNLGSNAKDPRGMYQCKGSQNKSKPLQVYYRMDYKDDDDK
Assay: Biacore SPR, vs template H183/L072

Row | Binder | fold change of affinity [fold]
1 | B1 | 0
2 | B2 | 0
3 | B3 | 0
4 | B4 | 1
5 | B5 | 0
6 | B6 | 0
7 | B7 | 0
8 | B8 | 1.1
9 | B9 | 0
10 | B10 | 0
11 | B11 | 0
12 | B12 | 0
13 | B13 | 0
14 | B14 | 0
15 | B15 | 0
16 | B16 | 0
17 | B17 | 0
18 | B18 | 0
19 | B19 | 0
20 | B20 | 0
21 | B21 | 0.3

Row | Binder | fold change of affinity [fold]
22 | B22 | 0
23 | B23 | 0
24 | B24 | 0.2
25 | B25 | 0
26 | B26 | 0
27 | B27 | 0
28 | B28 | 0.5
29 | B29 | 0.1
30 | B30 | 0
31 | B31 | 0
32 | B32 | 0
33 | B33 | 0
34 | B34 | 0
35 | B35 | 0
36 | B36 | 0
37 | B37 | 0.3
38 | B38 | 0
39 | B39 | 0.4
40 | B40 | 0
41 | B41 | 0
42 | B42 | 0
